Experimental data: publication PMC9080154

B1: SEB aptamer (ssDNA)
DNA: GGTATTGAGGGTCGCATCCACTGGTCGTTGTTGTCTGTTGTCTGTTATGTTGTTTCGTGATGGCTCTAACTCTCCTCT
B2: SEB aptamer1 (6-FAM) (ssDNA)
DNA: B1 DNA

Target: Staphylococcal enterotoxin B (SEB) (Staphylococcus aureus, UniProt P01552 28-266)
Sequence (P01552 28-266): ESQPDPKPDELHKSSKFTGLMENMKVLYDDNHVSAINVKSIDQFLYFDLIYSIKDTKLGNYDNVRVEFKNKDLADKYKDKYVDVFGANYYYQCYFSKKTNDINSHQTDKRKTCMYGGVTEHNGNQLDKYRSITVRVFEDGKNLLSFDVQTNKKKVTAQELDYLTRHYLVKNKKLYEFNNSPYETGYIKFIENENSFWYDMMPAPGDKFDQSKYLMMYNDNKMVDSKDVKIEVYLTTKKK

| Binder | binding result |
| --- | --- |
| B1 | binds |
| B2 | binds |
